Target: MHC class I on ARPE-19 cells (Homo sapiens)
Test: flow cytometry on ARPE-19 cells infected with AD169R (GFP reporter), 6 dpi, antibody 2 µg/mL, anti-mouse AF647 secondary

## α-MHC-1 (W6/32) (antibody)
  Q1, percent of cells GFP- and Alexa Fluor 647+: 86.9%
  Q2, percent of cells GFP+ and Alexa Fluor 647+: 12.7%
